# Laboratory results taken from US20260184748A1 (University of Pennsylvania, published 2026).
# Where no end group is shown, it is not given here.
# T1: ADCYAP1R1 (UniProt P41586 21-468, limits assumed)
# T1 sequence (looked up): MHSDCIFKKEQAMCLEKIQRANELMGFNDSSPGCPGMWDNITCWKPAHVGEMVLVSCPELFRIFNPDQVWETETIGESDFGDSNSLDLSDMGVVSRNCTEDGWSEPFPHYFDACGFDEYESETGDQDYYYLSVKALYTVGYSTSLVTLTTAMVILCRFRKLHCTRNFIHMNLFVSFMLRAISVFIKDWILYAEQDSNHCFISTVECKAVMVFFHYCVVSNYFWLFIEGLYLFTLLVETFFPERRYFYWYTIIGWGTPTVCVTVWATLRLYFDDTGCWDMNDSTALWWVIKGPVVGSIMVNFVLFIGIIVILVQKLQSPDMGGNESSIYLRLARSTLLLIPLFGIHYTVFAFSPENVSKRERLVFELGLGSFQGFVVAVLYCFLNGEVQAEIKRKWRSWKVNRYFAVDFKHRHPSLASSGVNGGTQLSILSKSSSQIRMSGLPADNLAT
# T2: UTR2 (UniProt Q9UKP6 1-389)
# T2 sequence (looked up): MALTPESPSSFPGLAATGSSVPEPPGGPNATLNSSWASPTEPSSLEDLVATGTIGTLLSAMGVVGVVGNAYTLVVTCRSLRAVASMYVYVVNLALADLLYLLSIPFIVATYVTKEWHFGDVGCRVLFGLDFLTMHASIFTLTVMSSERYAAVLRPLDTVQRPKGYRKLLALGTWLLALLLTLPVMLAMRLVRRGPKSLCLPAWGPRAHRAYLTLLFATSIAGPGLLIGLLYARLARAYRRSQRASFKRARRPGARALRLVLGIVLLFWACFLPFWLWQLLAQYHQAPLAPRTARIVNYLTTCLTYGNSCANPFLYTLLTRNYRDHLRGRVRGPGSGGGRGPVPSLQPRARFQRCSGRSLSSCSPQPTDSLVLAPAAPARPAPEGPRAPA
# T3: ADRA1B (UniProt P35368 1-520)
# T3 sequence (looked up): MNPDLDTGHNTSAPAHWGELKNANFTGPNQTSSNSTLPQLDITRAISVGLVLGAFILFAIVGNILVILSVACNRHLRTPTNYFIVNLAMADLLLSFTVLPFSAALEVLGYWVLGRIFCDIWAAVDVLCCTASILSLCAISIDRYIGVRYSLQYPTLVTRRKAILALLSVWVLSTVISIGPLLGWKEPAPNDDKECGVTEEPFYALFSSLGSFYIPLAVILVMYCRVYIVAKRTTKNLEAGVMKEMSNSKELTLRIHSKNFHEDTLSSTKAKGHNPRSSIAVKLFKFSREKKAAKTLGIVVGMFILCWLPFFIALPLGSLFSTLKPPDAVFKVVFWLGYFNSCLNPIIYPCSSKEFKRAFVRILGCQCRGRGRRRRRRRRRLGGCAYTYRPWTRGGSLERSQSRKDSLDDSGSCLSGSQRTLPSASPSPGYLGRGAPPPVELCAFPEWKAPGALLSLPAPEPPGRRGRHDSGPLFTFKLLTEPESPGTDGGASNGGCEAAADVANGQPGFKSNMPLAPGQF
# T4: P2RY11 (UniProt Q96G91 1-374)
# T4 sequence (looked up): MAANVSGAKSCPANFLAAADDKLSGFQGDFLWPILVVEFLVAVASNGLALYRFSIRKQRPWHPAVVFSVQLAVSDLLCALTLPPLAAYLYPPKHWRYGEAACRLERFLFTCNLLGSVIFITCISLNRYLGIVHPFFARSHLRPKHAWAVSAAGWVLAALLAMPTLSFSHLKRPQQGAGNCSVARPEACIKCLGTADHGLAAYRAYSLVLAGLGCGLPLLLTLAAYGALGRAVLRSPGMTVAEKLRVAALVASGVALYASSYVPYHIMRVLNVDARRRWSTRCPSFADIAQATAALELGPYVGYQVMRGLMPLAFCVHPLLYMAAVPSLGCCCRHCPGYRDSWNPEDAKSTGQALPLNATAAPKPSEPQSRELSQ
# T5: CCR6 (UniProt P51684 1-374)
# T5 sequence (looked up): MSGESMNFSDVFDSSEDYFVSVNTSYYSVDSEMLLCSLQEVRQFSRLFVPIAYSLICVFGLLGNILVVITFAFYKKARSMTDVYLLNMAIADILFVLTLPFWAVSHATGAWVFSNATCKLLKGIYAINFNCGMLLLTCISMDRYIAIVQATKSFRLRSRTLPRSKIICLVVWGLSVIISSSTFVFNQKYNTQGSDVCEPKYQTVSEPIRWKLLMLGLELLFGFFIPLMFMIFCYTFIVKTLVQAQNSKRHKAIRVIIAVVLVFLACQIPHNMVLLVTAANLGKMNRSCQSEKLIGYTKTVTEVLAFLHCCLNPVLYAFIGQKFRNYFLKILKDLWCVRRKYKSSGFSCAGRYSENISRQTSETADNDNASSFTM
# T6: CXCR5 (UniProt P32302 1-372)
# T6 sequence (looked up): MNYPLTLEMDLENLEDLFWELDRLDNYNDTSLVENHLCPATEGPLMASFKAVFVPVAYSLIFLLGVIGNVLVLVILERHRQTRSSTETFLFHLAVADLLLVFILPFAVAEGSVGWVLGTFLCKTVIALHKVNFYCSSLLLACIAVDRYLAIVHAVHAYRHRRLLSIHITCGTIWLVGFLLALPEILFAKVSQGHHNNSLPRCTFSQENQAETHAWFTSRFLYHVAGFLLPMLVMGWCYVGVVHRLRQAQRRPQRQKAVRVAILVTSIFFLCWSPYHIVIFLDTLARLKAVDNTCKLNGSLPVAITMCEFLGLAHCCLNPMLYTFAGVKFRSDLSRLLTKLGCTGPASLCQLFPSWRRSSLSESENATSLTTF
# Columns and labels:
# Test in all cases: cell-based or functional assay
# ADCYAP1R1 = biological target: T1, ADCYAP1R1
# C5L2 = C5L2 (UniProt Q9P296 1-337)
# UTR2 = biological target: T2, UTR2
# ADRA1B = biological target: T3, ADRA1B
# P2RY11 = biological target: T4, P2RY11
# CCR6 = biological target: T5, CCR6
# CXCR5 = biological target: T6, CXCR5
# C5L2, sequence (Q9P296 whole entry): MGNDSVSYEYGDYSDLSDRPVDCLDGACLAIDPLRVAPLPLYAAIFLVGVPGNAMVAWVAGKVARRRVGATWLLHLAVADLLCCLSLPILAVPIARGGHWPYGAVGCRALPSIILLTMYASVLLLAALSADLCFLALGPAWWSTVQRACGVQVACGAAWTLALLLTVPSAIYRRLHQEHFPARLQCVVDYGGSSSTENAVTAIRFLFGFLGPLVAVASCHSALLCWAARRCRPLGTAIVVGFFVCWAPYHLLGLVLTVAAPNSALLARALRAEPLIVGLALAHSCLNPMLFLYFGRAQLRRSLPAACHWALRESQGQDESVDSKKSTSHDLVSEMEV
binder,measurement,setting,value
"QATVGDVNTDRPGLLDLK (also: synthesised on Rink amide resin, C-terminal amide not given here outright) [octadecaneuropeptide (ODN)]","% Activity, arrestin, antagonist mode, 2.5 uM",ADCYAP1R1,0.9%
same,"% Activity, arrestin, antagonist mode, 2.5 uM",C5L2,3.5%
same,"% Activity, arrestin, antagonist mode, 2.5 uM",UTR2,-27.2%
same,"% Activity, arrestin, antagonist mode, 2.5 uM",ADRA1B,0.1%
same,"% Activity, arrestin, antagonist mode, 2.5 uM",P2RY11,-5.6%
same,"% Activity, arrestin, antagonist mode, 2.5 uM",CCR6,-14.8%
same,"% Activity, arrestin, antagonist mode, 2.5 uM",CXCR5,-18.9%
